Where a chain is given by its changes, count along the chain named. Names may count otherwise. Read-outs that look alike come from different tables or passages of the source.
B1: 17G4 (a human-rabbit chimeric antibody, parent) (antibody, human IgG1, kappa, V domains shown)
VH: QSLEESGGRLVTPGTPLTLTCTASGFSLNDYYITWVRQAPGKGLEWIGVIYGSSNTVYASWAKGRFTISKTSTMVDLRITSPTTEDTATYFCARGYLASSADIWGPGTLVTVSL
VL: QVLTQTPSPVSAAVGGTVTINCQSSQSVYNNNRLAWYQQKPGQPPKLLIYDASTLASGVPSRFKGSGSGTDFTLTISDLECADAATYYCQTYYSGYIWAFGGGTEVVVKR
notes: Rabbit variable regions on the human IgG1 constant region with L234F/L235E/P331S (Eu numbering) and human Ckappa
B2: 20A3 (a human-rabbit chimeric antibody, parent) (antibody, human IgG1, kappa, V domains shown)
VH: QSVEESGGRLVTPGTPLTLTCTASGFTINNYYMNWVRQAPGKGLEWIGIIYGSDNTYYASWAKGRFTISKTSTTVDLIMTSPTTEDTATYFCVRNLDYSSAYFHIWGPGTLVTVSS
VL: QVLTQTPSPVSAAVGGTVSISCQASQSVYNNNRLAWYQQKPGQPPNLLIYEASKLASGVPSRFKGSGSGTQFTLIISEVQCEDAATYYCQGYYSGFIYPFGGGTEVVVKR
notes: as for B1
B3: 17G4-H5L3 (antibody, human IgG1, kappa, V domains shown)
VH: EQQLVESGGGLVQPGGSLRLSCAASGFSLNDYYITWVRQAPGKGLEWIGVIYGSSNTVYASWAKGRFTISKTSTMVYLQMNSLRAEDTAVYFCARGYLASSADIWGQGTLVTVSS
VL: DQQLTQSPSSLSASVGDRVTITCQSSQSVYNNNRLAWYQQKPGKPPKLLIYDASTLASGVPSRFSGSGSGTDFTLTISSLQPEDVATYYCQTYYSGYIWAFGGGTKVEIKR
notes: Humanized; human IgG1 constant region with L234F/L235E/P331S and human Ckappa; also called 17G4's humanized antibody
B4: 20A3-H2L2 (antibody, human IgG1, kappa, V domains shown)
VH: EVQLVESGGGLVQPGGSLRLSCAASGFTINNYYMNWVRQAPGKGLEWVSIIYGSDNTYYASWAKGRFTISKDNSKNTVYLQMNSLRAEDTAVYYCVRNLDYSSAYFHIWGQGTLVTVSS
VL: B3 VL with Q2I, S25A, D52E, T55K, T92G, Y97F, W99Y, A100P
notes: Humanized; human IgG1 constant region with L234F/L235E/P331S and human Ckappa; also called 20A3's humanized antibody

Tests used:
[1] = target: T1, human BTN3A1 recombinant protein with his tag (h-BTN3A1-his) (human, UniProt O00481 30-254); assay: SPR Biacore 8K, antibody captured on Protein A chip, BTN3A1 as analyte, 1:1 Langmuir fit
T1 construct: range 30-254; Bought from Kactus; also called human BTN3A1 antigen protein (Kactus Biosystems, BTN-HM1A1); not shown: his tag
T1 sequence (O00481 30-254 limits assumed): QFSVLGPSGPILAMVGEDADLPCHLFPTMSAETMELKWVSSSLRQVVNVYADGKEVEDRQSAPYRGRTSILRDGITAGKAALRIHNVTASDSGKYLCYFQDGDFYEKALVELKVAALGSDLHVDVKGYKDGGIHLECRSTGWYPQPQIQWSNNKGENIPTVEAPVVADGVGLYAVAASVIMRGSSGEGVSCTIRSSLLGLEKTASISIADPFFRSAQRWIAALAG

[2] = target: T2, human BTN3A1 expressed on HEK293 cells (human, UniProt O00481 30-513); assay: flow cytometry, HEK293 cells overexpressing human BTN3A1
T2 construct: whole, on cells; also called BTN3A1-expressing HEK293 cells; human BTN3A1-overexpressing cells
T2 sequence (O00481 30-513): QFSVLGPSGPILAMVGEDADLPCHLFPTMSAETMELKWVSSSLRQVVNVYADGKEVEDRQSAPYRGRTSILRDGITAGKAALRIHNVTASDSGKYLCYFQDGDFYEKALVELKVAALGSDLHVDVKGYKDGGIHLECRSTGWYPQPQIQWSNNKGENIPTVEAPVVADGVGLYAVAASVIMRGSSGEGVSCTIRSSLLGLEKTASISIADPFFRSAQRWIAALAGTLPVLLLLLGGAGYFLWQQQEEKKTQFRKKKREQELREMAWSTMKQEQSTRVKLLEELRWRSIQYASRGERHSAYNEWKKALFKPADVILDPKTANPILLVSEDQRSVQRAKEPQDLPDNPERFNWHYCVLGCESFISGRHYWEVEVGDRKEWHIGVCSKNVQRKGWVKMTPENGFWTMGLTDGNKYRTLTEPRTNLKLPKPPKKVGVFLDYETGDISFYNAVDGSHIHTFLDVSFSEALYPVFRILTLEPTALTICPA

[3] = target: T2, human BTN3A1 expressed on HEK293 cells; assay: flow cytometry, HEK293 cells (endogenous BTN3A knocked out) overexpressing human BTN3A1
[4] = target: T1, human BTN3A1 recombinant protein with …; assay: ELISA, plate coated with h-BTN3A1-his, antibody titrated
[5] = target: T3, human BTN3A3 overexpressed on HEK293 cells (human, UniProt O00478 30-584); assay: flow cytometry, HEK293 cells (endogenous BTN3A knocked out) overexpressing human BTN3A3
T3 construct: whole, on cells; HEK293 cells with endogenous BTN3A knocked out; also called human BTN3A3-overexpressing cells
T3 sequence (O00478 30-584): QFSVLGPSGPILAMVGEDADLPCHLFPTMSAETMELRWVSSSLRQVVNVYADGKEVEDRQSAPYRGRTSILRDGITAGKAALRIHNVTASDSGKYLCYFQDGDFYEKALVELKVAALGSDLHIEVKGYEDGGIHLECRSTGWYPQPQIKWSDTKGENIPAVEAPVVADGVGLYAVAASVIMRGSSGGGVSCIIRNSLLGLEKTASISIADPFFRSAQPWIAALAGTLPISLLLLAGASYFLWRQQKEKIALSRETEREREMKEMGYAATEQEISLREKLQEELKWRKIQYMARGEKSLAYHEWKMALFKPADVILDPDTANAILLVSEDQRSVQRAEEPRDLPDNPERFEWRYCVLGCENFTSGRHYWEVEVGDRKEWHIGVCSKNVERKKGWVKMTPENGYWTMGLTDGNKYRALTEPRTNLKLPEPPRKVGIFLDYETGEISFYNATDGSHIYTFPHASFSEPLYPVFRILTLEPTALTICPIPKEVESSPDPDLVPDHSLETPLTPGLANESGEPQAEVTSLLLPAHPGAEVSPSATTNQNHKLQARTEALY

[6] = target: T2, human BTN3A1 expressed on HEK293 cells; assay: flow cytometry, HEK293 cells (endogenous BTN3A knocked out) overexpressing human BTN3A1; remark: listed apart in the source
[7] = target: T1, human BTN3A1 recombinant protein with …; assay: SPR Biacore 8K, antibody captured on Protein A chip, BTN3A1 as analyte, 1:1 Langmuir fit; remark: listed apart in the source
[8] = target: T4, human BTN3A2 overexpressed on HEK293 cells (human, UniProt P78410 30-334); assay: flow cytometry, HEK293 cells (endogenous BTN3A knocked out) overexpressing human BTN3A2
T4 construct: whole, on cells; HEK293 cells with endogenous BTN3A knocked out; also called human BTN3A2-overexpressing cells
T4 sequence (P78410 30-334): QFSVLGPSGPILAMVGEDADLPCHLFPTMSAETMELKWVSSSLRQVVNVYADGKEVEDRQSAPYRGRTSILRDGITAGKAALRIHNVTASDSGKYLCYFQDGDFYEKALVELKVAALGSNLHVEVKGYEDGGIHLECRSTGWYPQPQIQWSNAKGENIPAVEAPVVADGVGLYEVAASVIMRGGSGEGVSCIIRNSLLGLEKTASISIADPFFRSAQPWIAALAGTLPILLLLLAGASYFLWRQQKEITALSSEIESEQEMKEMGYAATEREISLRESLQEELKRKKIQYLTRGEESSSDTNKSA

Binder | Kd [1] [nM] | koff [1] [s⁻¹] | kon [1] [M⁻¹ s⁻¹] | EC50 [2] [nM] | Max FACS mean fluorescence intensity (MFI) [2] [MFI] | EC50 [3] [nM] | EC50 [4] [nM] | EC50 [5] [nM] | EC50 [6] [nM] | Kd [7] [nM] | koff [7] [s⁻¹] | kon [7] [M⁻¹ s⁻¹] | EC50 [8] [nM]
B1 | 0.228 | 0.000182 | 800000 | 17.4 | 98000 | 15.4 | 0.0228 | – | – | – | – | – | –
B2 | 0.174 | 0.000172 | 985000 | 11.7 | 95800 | 8.2 | 0.0196 | – | – | – | – | – | –
B3 | – | – | – | 19.8 | 89700 | – | – | – | – | – | – | – | –
B4 | – | – | – | 10.2 | 91200 | – | – | 5.12 | 2.98 | 0.174 | 0.000172 | 985000 | 6.76

Source: EP4755916A1 (Jiangsu Hengrui Pharmaceuticals Co., Ltd., dated 2026)
